Measurements from patent publication US20220306759A1.

Tests used:
[1] = target: human CD71 (transferrin receptor protein 1, TfR1) on human cell lines (human) (UniProt P02786); assay: FACS on H292 cells; isotype ADC control, curve fit with Bmax of only 10.64 MFI
[2] = target: human CD71 (transferrin receptor protein 1, TfR1) on human cell lines (human) (UniProt P02786); assay: FACS on H292 cells; isotype ADC control

Sequence of human CD71 (transferrin receptor protein 1, TfR1) on human cell lines (human) (P02786 whole entry): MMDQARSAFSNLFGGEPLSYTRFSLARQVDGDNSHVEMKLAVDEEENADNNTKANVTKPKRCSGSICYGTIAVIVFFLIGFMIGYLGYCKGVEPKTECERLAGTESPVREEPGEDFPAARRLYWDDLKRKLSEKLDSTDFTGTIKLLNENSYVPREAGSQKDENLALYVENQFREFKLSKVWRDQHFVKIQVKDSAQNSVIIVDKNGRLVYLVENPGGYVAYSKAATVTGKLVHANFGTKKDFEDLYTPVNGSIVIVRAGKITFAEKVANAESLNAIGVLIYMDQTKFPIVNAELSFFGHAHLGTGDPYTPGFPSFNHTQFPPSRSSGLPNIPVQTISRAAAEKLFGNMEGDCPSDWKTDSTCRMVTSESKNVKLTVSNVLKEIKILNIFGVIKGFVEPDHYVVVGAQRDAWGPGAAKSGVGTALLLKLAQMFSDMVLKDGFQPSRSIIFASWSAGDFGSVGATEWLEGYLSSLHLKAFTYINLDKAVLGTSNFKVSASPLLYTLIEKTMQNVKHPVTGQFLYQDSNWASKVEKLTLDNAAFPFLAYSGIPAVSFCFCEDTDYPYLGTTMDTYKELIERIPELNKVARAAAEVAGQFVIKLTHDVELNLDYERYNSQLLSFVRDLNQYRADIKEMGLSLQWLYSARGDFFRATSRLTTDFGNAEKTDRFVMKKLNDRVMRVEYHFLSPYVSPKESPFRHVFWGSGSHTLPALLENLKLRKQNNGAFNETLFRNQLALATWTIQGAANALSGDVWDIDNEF

Kd [1]: 57 nM
Bmax (MFI) [2]: 10.6 MFI
Substance: isotype ADC control (palivizumab-vc-MMAE) (antibody)
